“Also recorded” adds a separate entry of the source.
Assays:
[1] = mouse, in vivo, cited from earlier work
lupus-prone NZBWF1 mice [2] = test: Kaplan-Meier survival in spontaneous SLE mouse model NZBWF1; type: in vivo; settings: for mice still alive at the end of the study: 330 days
Experimental: NZBWF1/J mice develop an autoimmune disease resembling human systemic lupus erythematosus. […] The animals were maintained under standard laboratory conditions, at 20-24° C. and 40-70% relative humidity, with 12-hour fluorescent light/12-hour dark cycle. They were feed standard diet and tap water ad libitum.
(§1) Both IP and SC administrations for C4BP(β−), CYP and PBS (150 μl/each) were performed with a 25-gauge needle during 30 s, after rinsing the skin with 70% ethanol.
(§2) The detailed administration schedule was as follows (Table 5):
(§3) One-way analysis of variance (ANOVA) with post hoc tests was performed to compare proteinuria throughout the follow up. Survival data were analyzed using Kaplan-Meier curves and long-rank test. P value<0.05 was considered significant. Data are expressed as mean±SEM.

lupus-prone NZBWF1 mice [3] = test: Renal function (24 h proteinuria) in spontaneous SLE mouse model NZBWF1; type: in vivo; settings: for delay in the onset of proteinuria: vs PBS-treated control
Experimental: Mice, Study Design and Follow Up
NZB/NZW F1 or NZBWF1/J (Charles-River), NZB/NZW F1 (Jackson, code 100008) are a hybrid cross between NZB/B1NJ (Jackson, code 000684) Female x NZW/LacJ (Jackson, code 001058) Male. NZBWF1/J mice develop an autoimmune disease resembling human systemic lupus erythematosus. The inventors used 58 females (30-35 g/each) aged 15 weeks for the study (4-5 animals per cage). The animals were maintained under standard laboratory conditions, at 20-24° C. and 40-70% relative humidity, with 12-hour fluorescent light/12-hour dark cycle. They were feed standard diet and tap water ad libitum. […]
Dose Selection and Administration.
The selection of the C4BP(β−) dose for in vivo administration was based in previous studies employing complement-related proteins in immune-inflammatory pathologies. Blom et al. (Blom et al. 2009. Ann. Rheum. Dis., 68:136-42) used the C4BP isoform lacking β chain in experimental collagen-induced arthritis (CIA) and collagen antibody-induced arthritis (CAIA) mice to investigate the influence of complement activity in the treatment of rheumatoid arthritis. These authors administered intraperitoneally C4BP (2 mg/mouse) using a multiple dose-regimen once every two days in preventive and therapeutic experiments. Thus, in the current study, C4BP(β−) was administered both intraperitoneally (IP) and subcutaneously (SC) into NZBWF1 mice for three months (between six and nine months of age).
Alperovich et al (Alperovich et al. 2007. Lupus, 16:18-24) administered cyclophosphamide (CYP) to NZBWF1 mice at 50 mg/kg IP every 10 days.
as §1, §2
Body weight was determined twice monthly from the beginning to the end of follow-up. Mice were placed in metabolic cages to collect 24 h urine specimens before the onset of treatment and monthly thereafter. Blood was obtained from the tail vein at monthly intervals.
Renal Function Analysis: Proteinuria
24 h urinary protein was determined by pyrogallol red (Olympum Autoanalyzer AU400, Hamburg, Germany) in the Veterinary Clinical Biochemistry Laboratory from Universitat Autonoma de Barcelona.
as §3

[4] = test system: human monocyte-derived DCs; test: Immunomodulatory activity over human monocyte-derived DCs: CD83/CD86 surface expression by flow cytometry after LPS maturation; type: cell-based; settings: FIG. 4
Experimental: In Vitro Functional Assessment of the Immunomodulatory Activity of Full-Length C4BP(β−) and C4BP(β−) Variants Over DCs
The inventors used for the in vitro study both C4BP(β+) (WT) and recombinant C4BP(β−) isoforms, and the above-referred mutants or variants: Mutant 1 and Mutant 2. C4BP(β+) isoforms refer to the major C4BP α7β1 plus the minor C4BP α6β1 isoforms (both in complex with ProS) purified from pooled human plasma.
RPMI 1640 was supplemented with 100 μg/ml of streptomycin, 100 IU/ml of penicillin, 2 mM L-glutamine (all from Invitrogen, Carlsbad, CA) and 10% heat-inactivated fetal bovine serum (Linus, Cultek, Spain) (complete medium), unless otherwise stated.
Peripheral blood mononuclear cells (PBMCs) were obtained from buffy coat preparations collected from healthy donors from the Blood and Tissue Bank (Barcelona, Spain) after Ficoll-Paque™ density centrifugation (GE Healthcare Bio-Sciences AB; Uppsala, Sweden). For surface phenotype determination, monocytes were plated at 1×10^6 cells/ml in 60 mm culture plates (Corning, Spain), in RPMI 1640 medium without serum, and allowed to adhere for 2 h at 37° C. in 5% CO2. The non-adherent cells were removed by washing in PBS.
Monocyte-derived DCs were generated supplementing the monocyte cultures with complete RPMI 1640 medium plus GM-CSF (800 UI/ml) and IL-4 (500 UI/ml) (both from Gentaur, Kampenhout, Belgium) at day 0 and day 3 of culture. For DC maturation, at day 5 iDCs were further stimulated for 48 h with 5 μg/ml LPS (Escherichia coli 055.B5, Sigma L2880, Copenhagen, Denmark).
Staining using the fluorescent dye 7-amino-actinomycin D (7-AAD) (BD Pharmigen) and flow cytometry analysis was employed to assess the viability status of C4BP-treated and untreated DCs.
Cell surface phenotypes were analyzed by flow cytometry using the following mAbs: FITC-conjugated anti-CD83 (HB15a) and PE-conjugated anti-CD86 (HA5.2B7) (all from Beckman-Coulter). The respective isotype controls FITC-conjugated anti-IgG2b (H2) and PE-conjugated anti-IgG2b (H2), were from the same commercial sources. After washing with PBS, cells were subsequently stained with 3 μl mAb/10^5 cells in 100 μl of FACS buffer (PBS containing 1% BSA and 0.1% sodium azide) for 20 min at room temperature. To exclude dead cells and debris, DCs were gated according to forward scatter (FSC) and side scatter (SSC) parameters. Stained cells were analyzed using a FACSCalibur (Becton Dickinson, Franklin Lakes, NJ) equipped with CellQuestPro software (Becton Dickinson).
In Vitro Functional Assessment of C4BP(β−) Immunomodulatory Activity Over DCs
The inventors used for the in vitro study both C4BP(+) and C4BP(β−) isoforms. C4BP(3+) isoforms refer to the major C4BP α7β1 plus the minor C4BP α6β1 isoforms (both in complex with ProS) purified from pooled human plasma, as previously described (Dahlbäck B. 1983. Biochem J., 209:847-56).

[5] = IP, 5 μg/mouse once every two weeks
[6] = IP, 50 μg/mouse once every two weeks
[7] = IP, 500 μg/mouse once every two weeks

B1: C4BP: human C4b-binding protein as used by Blom et al. 2009, intraperitoneally in mice (protein, UniProt P04003 49-597; P20851 18-252, looked up)
C4b-binding protein alpha …: NCGPPPTLSFAAPMDITLTETRFKTGTTLKYTCLPGYVRSHSTQTLTCNSDGEWVYNTFCIYKRCRHPGELRNGQVEIKTDLSFGSQIEFSCSEGFFLIGSTTSRCEVQDRGVGWSHPLPQCEIVKCKPPPDIRNGRHSGEENFYAYGFSVTYSCDPRFSLLGHASISCTVENETIGVWRPSPPTCEKITCRKPDVSHGEMVSGFGPIYNYKDTIVFKCQKGFVLRGSSVIHCDADSKWNPSPPACEPNSCINLPDIPHASWETYPRPTKEDVYVVGTVLRYRCHPGYKPTTDEPTTVICQKNLRWTPYQGCEALCCPEPKLNNGEITQHRKSRPANHCVYFYGDEISFSCHETSRFSAICQGDGTWSPRTPSCGDICNFPPKIAHGHYKQSSSYSFFKEEIIYECDKGYILVGQAKLSCSYSHWSAPAPQCKALCRKPELVNGRLSVDKDQYVEPENVTIQCDSGYGVVGPQSITCSGNRTWYPEVPKCEWETPEGCEQVLTGKRLMQCLPNPEDVKMALEVYKLSLEIEQLELQRDSARQSTLDKEL
C4b-binding protein beta chain: SDAEHCPELPPVDNSIFVAKEVEGQILGTYVCIKGYHLVGKKTLFCNASKEWDNTTTECRLGHCPDPVLVNGEFSSSGPVNVSDKITFMCNDHYILKGSNRSQCLEDHTWAPPFPICKSRDCDPPGNPVHGYFEGNNFTLGSTISYYCEDRYYLVGVQEQQCVDGEWSSALPVCKLIQEAPKPECEKALLAFQESKNLCEAMENFMQQLKESGMTMEELKYSLELKKAELKAKLL
initial amount remaining in the circulation ([1]; ip): 3%
clearance from the circulation [1]: cleared fast

B2: rC4BP(β−): recombinant C4BP isoform lacking the β-chain, transiently produced in HEK293 cells (Expi293 cells) (protein, UniProt P04003 49-597, looked up)
C4b-binding protein alpha …: B1 C4b-binding protein alpha …
modifications: alpha-chain-only isoform, recombinant
survival (lupus-prone NZBWF1 mice [2]; IP, 5 μg once every two weeks, all mice died at end of study (330 days)): performed similarly to the control PBS-treated group
mice still alive at the end of the study (lupus-prone NZBWF1 mice [2]; IP, 50 μg once every two weeks): 20-30%
mice still alive at the end of the study (lupus-prone NZBWF1 mice [2]; IP, 500 μg once every two weeks): 20-30%
mice active at the end of the study (lupus-prone NZBWF1 mice [2]; SC route, all treatment groups): maintained mice active at the end of the study
mice alive at 330 days (lupus-prone NZBWF1 mice [2]; SC, 50 μg once every two weeks): more than 60%
survival respect to control PBS-treated mice (lupus-prone NZBWF1 mice [2]; SC, 50 μg once every two weeks): appreciably delay their survival; also recorded: best survival rate
progress of the disease (lupus-prone NZBWF1 mice [2]; SC, 50 μg, NZBWF1 mice): substantial slowing of the progress of the disease
statistical analysis of Kaplan-Meier survival curves vs control PBS-treated group (lupus-prone NZBWF1 mice [2]; any of the rC4BP(β−)-treated groups, n=6): no statistically significant differences
survival, subcutaneous route compared with intraperitoneal route (lupus-prone NZBWF1 mice [2]; doses of 5 μg and 50 μg, FIG. 6): higher
proteinuria by week 37 (lupus-prone NZBWF1 mice [3]; [5]): severe proteinuria indistinguishable from the PBS-treated control group
delay in the onset of proteinuria (lupus-prone NZBWF1 mice [3]; [5]): 2 week
proteinuria by week 37 (lupus-prone NZBWF1 mice [3]; [6]): severe proteinuria indistinguishable from the PBS-treated control group
delay in the onset of proteinuria (lupus-prone NZBWF1 mice [3]; [6]): 2 week
proteinuria level at the end of the study (week 37) (lupus-prone NZBWF1 mice [3]; [7]): ~300 mg protein/kg
delay in the onset of proteinuria (lupus-prone NZBWF1 mice [3]; [7]): 6 weeks
proteinuria by week 37 (end of the study) (lupus-prone NZBWF1 mice [3]; SC, 50 μg once every two weeks): < 200 mg/kg
onset / development of proteinuria (lupus-prone NZBWF1 mice [3]; mouse, in vivo, sc): significantly delayed; also recorded: strongest attenuation of proteinuria development
efficacy, SC 50 μg/mouse vs IP 500 μg/mouse (lupus-prone NZBWF1 mice [3]; same regimen, SLE mouse model): more effective than the intraperitoneal administration of 500 μg/mouse
semi-mature, anti-inflammatory phenotype conferred to LPS-matured MoDCs (immunomodulatory activity) ([4]; MoDCs pre-incubated with 5 μg/ml protein, LPS challenge): able to confer an analogous semi-mature, anti-inflammatory phenotype
CD83 and CD86 surface marker expression ([4]; human MoDCs, 5 μg/ml C4BP isoform, LPS 5 μg/ml): restrain similarly CD83 and CD86 surface marker expression
